Reference: IntAct's records for PubMed 29039417

B1: Isoform 2 of Bardet-Biedl syndrome 7 protein (Homo sapiens), Q8IWZ6-2 (parent)
chain: MDLILNRMDYLQVGVTSQKTMKLIPASRHRATQKVVIGDHDGVVMCFGMKKGEAAAVFKTLPGPKIARLELGGVINTPQEKIFIAAASEIRGFTKRGKQFLSFETNLTESIKAMHISGSDLFLSASYIYNHYCDCKDQHYYLSGDKINDVICLPVERLSRITPVLACQDRVLRVLQGSDVMYAVEVPGPPTVLALHNGNGGDSGEDLLFGTSDGKLALIQITTSKPVRKWEIQNEKKRGGILCIDSFDIVGDGVKDLLVGRDDGMVEVYSFDNANEPVLRFDQMLSESVTSIQGGCVGKDSYDEIVVSTYSGWVTGLTTEPIHKESGPGEELKINQEMQNKISSLRNELEHLQYKVLQERENYQQSSQSSKAKSAVPSFGINDKFTLNKDDASYSLILEVQTAIDNVLIQSDVPIDLLDVDKNSAVVSFSSCDSESNDNFLLATYRCQADTTRLELKIRSIEGQYGTLQAYVTPRIQPKTCQVRQYHIKPLSLHQRTHFIDHDRPMNTLTLTGQFSFAEVHSWVVFCLPEVPEKPPAGECVTFYFQNTFLDTQLESTYRKGEGVFKSDNISTISILKDVLSKEATKRKINLNISYEINEVSVKHTLKLIHPKLEYQLLLAKKVQLIDALKELQIHEGNTNFLIPEYHCILEEADHLQEEYKKQPAHLERLYG
partner: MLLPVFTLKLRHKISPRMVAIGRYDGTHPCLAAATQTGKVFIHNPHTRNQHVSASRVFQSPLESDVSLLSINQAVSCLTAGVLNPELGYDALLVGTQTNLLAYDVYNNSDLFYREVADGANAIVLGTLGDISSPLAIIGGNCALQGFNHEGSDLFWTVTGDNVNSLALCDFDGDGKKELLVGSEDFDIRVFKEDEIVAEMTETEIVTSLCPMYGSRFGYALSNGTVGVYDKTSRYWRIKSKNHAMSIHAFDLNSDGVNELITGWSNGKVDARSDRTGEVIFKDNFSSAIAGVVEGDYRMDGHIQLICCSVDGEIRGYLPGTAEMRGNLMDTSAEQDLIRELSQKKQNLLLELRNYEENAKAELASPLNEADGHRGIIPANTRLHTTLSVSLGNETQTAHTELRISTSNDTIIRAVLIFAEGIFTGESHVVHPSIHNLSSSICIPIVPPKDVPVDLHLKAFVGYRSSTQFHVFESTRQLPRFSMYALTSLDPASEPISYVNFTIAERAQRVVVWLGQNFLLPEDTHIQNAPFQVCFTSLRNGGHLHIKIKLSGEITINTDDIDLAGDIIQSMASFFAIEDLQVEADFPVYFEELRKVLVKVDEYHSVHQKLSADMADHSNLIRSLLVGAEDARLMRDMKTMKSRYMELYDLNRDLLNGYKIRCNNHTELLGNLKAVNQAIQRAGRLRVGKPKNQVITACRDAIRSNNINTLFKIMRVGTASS
B2: Protein PTHB1 (Homo sapiens), Q3SYG4 (parent)
chain: MSLFKARDWWSTILGDKEEFDQGCLCLANVDNSGNGQDKIIVGSFMGYLRIFSPHPAKTGDGAQAEDLLLEVDLRDPVLQVEVGKFVSGTEMLHLAVLHSRKLCVYSVSGTLGNVEHGNQCQMKLMYEHNLQRTACNMTYGSFGGVKGRDLICIQSMDGMLMVFEQESYAFGRFLPGFLLPGPLAYSSRTDSFLTVSSCQQVESYKYQVLAFATDADKRQETEQQKLGSGKRLVVDWTLNIGEQALDICIVSFNQSASSVFVLGERNFFCLKDNGQIRFMKKLDWSPSCFLPYCSVSEGTINTLIGNHNNMLHIYQDVTLKWATQLPHIPVAVRVGCLHDLKGVIVTLSDDGHLQCSYLGTDPSLFQAPNVQSRELNYDELDVEMKELQKIIKDVNKSQGVWPMTEREDDLNVSVVVSPNFDSVSQATDVEVGTDLVPSVTVKVTLQNRVILQKAKLSVYVQPPLELTCDQFTFEFMTPDLTRTVSFSVYLKRSYTPSELEGNAVVSYSRPTDRNPDGIPRVIQCKFRLPLKLICLPGQPSKTASHKITIDTNKSPVSLLSLFPGFASQSDDDQVNVMGFHFLGGARITVLASKTSQRYRIQSEQFEDLWLITNELILRLQEYFEKQGVKDFACSFSGSIPLQEYFELIDHHFELRINGEKLEELLSERAVQFRAIQRRLLARFKDKTPAPLQHLDTLLDGTYKQVIALADAVEENQGNLFQSFTRLKSATHLVILLIALWQKLSADQVAILEAAFLPLQEDTQELGWEETVDAAISHLLKTCLSKSSKEQALNLNSQLNIPKDTSQLKKHITLLCDRLSKGGRLCLSTDAAAPQTMVMPGGCTTIPESDLEERSVEQDSTELFTNHRHLTAETPRPEVSPLQGVSE
partner: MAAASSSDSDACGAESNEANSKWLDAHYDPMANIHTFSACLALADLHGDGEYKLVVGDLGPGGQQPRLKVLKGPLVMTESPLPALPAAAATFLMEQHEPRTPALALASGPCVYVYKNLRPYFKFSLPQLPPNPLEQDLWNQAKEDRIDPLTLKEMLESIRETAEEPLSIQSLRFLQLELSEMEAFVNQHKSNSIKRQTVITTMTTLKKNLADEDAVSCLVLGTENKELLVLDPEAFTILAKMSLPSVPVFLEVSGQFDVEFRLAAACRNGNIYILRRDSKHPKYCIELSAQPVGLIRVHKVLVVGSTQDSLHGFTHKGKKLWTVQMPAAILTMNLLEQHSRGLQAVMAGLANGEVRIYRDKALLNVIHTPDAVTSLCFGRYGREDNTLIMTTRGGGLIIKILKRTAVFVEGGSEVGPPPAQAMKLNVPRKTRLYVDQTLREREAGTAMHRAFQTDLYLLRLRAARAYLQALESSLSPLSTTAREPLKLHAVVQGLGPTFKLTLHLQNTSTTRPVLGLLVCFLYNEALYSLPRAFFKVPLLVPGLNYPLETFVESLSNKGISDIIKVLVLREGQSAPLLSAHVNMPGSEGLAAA

Variants of: B1
Conditions: with bbs2_human BBS2, Q9BXC9

Effect of a mutation on the interaction, with no effect:
P664E
P664A
P664K
E652A
E652K
E659K
E659A
R669K
R669E
R669A
Q663K
Q663E
Q663A
K661E
K661A
D654K
D654E
D654A
L656A
L656E
L656K
G672A
G672K
G672E
L670A
L670E
L670K
Y660K
Y660E
Y660A
E658K
E658A
E668A
E668K
A653K
A653E
K662E
K662A
H655A
H655K
H655E
H666E
H666A
H666K
Y671A
Y671K
Y671E
A665E
A665K
L667E
L667A
L667K
Q657E
Q657A
Q657K

Variants of: B1
Conditions: with bbs2_human BBS2, Q9BXC9
Remark: another data set of the same source

Effect of a mutation on the interaction, with no effect:
S556R

Variants of: B2
Conditions: with bbs1_human BBS1, Q8NFJ9

Effect of a mutation on the interaction, with no effect:
I676E
V437E
S806A
I451A
I451K
D830K
T763K
I707A
A730E
N448E
K594E
Q807K
G579A
L808K
D470A
L779E
F421K
L815E
L815A
R493E
S855K
Q447E
R726E
L457E
L457K
L882K
L616E
S418A
I751E
I640A
N503K
P497K
V461K
E668A
T549E
L591A
